The source of these data is the RNAGym collection of RNA variant scans (doi:10.1073/pnas.2313332121).

The labels stand for the following.
B1: TPR 5TU (parent)
chain: GGAUCUUCUCGAUCUAACAAAAAAGACAAAUCUGCCACAAAGCUUGAGAGCAUCUUCGGAUGCAGAGGCGGCAGCCUUCGGUGGCGCGAUAGCGCCAACGUUCUCAACUAUGACACGCAAAACGCGUGCUCCGUUGAAUGGAGUUUAUCAUG

This sample holds only a part of the variants without activity.

In this data set the parent is B1. The data set is described as follows: polymerase ribozyme fitness, log enrichment relative to wild type (log ratio); higher = more active; in vitro selection for triplet polymerase activity. In short, it runs like this:
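For each subunit of a heterodimeric triplet polymerase ribozyme, a mutant library was built by PCR and transcribed, then taken through a single in vitro selection round in triplicate. Selection involved annealing to a biotinylated primer, the partner subunit and triplets, incubation frozen at −7 °C, gel excision of extended constructs, capture on streptavidin beads and RT-PCR. Genotypes were retained after Illumina sequencing of inputs and outputs only with ≥10 input reads and ≥1 read in each output. Fitness is defined as the logarithm of a genotype's enrichment relative to wild-type enrichment, using inverse-variance-weighted averages across replicates, with the logarithm taken to base 2.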
For C51G G83A U134C, the “polymerase ribozyme fitness (log ratio)” value is -3.62.

For A52C C87U A89C C99U, the “polymerase ribozyme fitness (log ratio)” value was -4.14. The result for G50C A137C G141U reads ≤ -4.2; that for A49G U55G G88A U139C U145A, ≤ -4.2.

As for A52C A66G C72A A97U C99A, the “polymerase ribozyme fitness (log ratio)” value is ≤ -4.2. As for G50C U90A, the “polymerase ribozyme fitness (log ratio)” value was ≤ -4.2. The result for G50C G86A C103G G124U C125U G126C reads ≤ -4.2; that for A52C C75U C85G C95G, ≤ -4.2.

As to A49U U55A A106G, the “polymerase ribozyme fitness (log ratio)” value was -0.994. The result for G50C A98U U101A reads ≤ -4.2; that for G50A U55G C87U, -1.24; that for A49U G50A, -0.047. With A52C G59A, the “polymerase ribozyme fitness (log ratio)” value was -1.18. The result for G50U U78A reads ≤ -4.2; that for A49U A73G G86C A97U, ≤ -4.2.

On to C51U U139G U144A, for which the “polymerase ribozyme fitness (log ratio)” value was 0.259.

In the case of C51A U56A C95A A98U, the “polymerase ribozyme fitness (log ratio)” value was -1.46. The result for A52C G70A reads -3.92; that for C51G U56A G68A C93U A97G U104G G143A U146A, ≤ -4.2.

With C51U G58A G124C, the “polymerase ribozyme fitness (log ratio)” value was -1.29. The result for A49U A150U reads -0.0151. Under G50U G126C A138U stands ≤ -4.2; under C51U C96G C132A, -3.26. The result for A52G A64U U101G A107C C125G reads ≤ -4.2; that for A52C C57G G94A G100U U148A, ≤ -4.2. On to G50C G84A, for which the “polymerase ribozyme fitness (log ratio)” value is -3.25.

On to A52C C54U U55G G67C G71U C85U G143C, for which the “polymerase ribozyme fitness (log ratio)” value was ≤ -4.2. The result for G50U C57A C72U G84A reads -0.724. The result for G50C G74C A120G G124U G126A reads ≤ -4.2; that for A52G C57A C79U C85A C116U A122G, ≤ -4.2. Under G50U A122G U148A stands -3.37; under A52C G84U U144G, -2.05; under A52C G71C, ≤ -4.2. As for A52C C69G G74C, the “polymerase ribozyme fitness (log ratio)” value is ≤ -4.2. On to G50C U55G G67A C75A C87U U134G A137G, for which the “polymerase ribozyme fitness (log ratio)” value was ≤ -4.2. As for G50U C93G, the “polymerase ribozyme fitness (log ratio)” value was -3.35.

For G50C C93A C103G A113G A115U G140C, the “polymerase ribozyme fitness (log ratio)” value was ≤ -4.2.

With C51G G94A U135A, the “polymerase ribozyme fitness (log ratio)” value was -3.11. Under G50C C87U A122U stands -3.11; under C51G C95U, -2.73. The result for A52C G80C G83U reads ≤ -4.2; that for G50U C72A A89C G92A C129A A137G A150U, ≤ -4.2. The result for G50A C54U C85U G92U U148A reads ≤ -4.2; that for A52G A60G C85A C95G A97G U102A C125A, ≤ -4.2; that for A49U G50A C85G C116G A121U, -1.16. As to G50C G65A, the “polymerase ribozyme fitness (log ratio)” value was -3.27. With G50C G58A, the “polymerase ribozyme fitness (log ratio)” value is -1.56. The result for G50U G84U reads -1.81. Under G50C C95A stands -2.7; under C51A C95U A119G, -1.34. The result for A52C C95U C99U reads -3.18; that for A52C C85A C93U C96G A121C U146C, ≤ -4.2. G50A U56A G86A: the “polymerase ribozyme fitness (log ratio)” value is -3.11. Under C51A G136A stands -0.23; under A52C C69A C87U U90C A142U, ≤ -4.2; under C51A C93U, -2.22. The result for G50A G84A A142C reads -3.15. Under G50U G83A C95G A107G stands ≤ -4.2; under G50U A89U C93U C99U U145A, -3.4; under G50C U109G A113G A120C U130G, ≤ -4.2. For G50A C57U C76U C125U A142C U144G A150G, the “polymerase ribozyme fitness (log ratio)” value is -3.98. Regarding G50U C95A U109G, the “polymerase ribozyme fitness (log ratio)” value was -3.26. For G50A C96G C129U, the “polymerase ribozyme fitness (log ratio)” value is -3.02. For the variant C51U C95G C105G G117U, the “polymerase ribozyme fitness (log ratio)” value was -3.53. G50C A60G: the “polymerase ribozyme fitness (log ratio)” value is -2.31. The result for G50C A89U G94U C96U A115G reads ≤ -4.2. The result for A52C A142G reads -1.98. Under A49U C85A stands -1.86; under A49U C85U, -2.25; under A52C A66C A91C A115G, ≤ -4.2.

On to A52G A142U, for which the “polymerase ribozyme fitness (log ratio)” value was -0.597.

On to C51U U61A G84U, for which the “polymerase ribozyme fitness (log ratio)” value is -2.8. Under C51U C85U stands -0.8; under A52G C57A G58A G83U C95U, -0.758.

Take C51U A115U: the “polymerase ribozyme fitness (log ratio)” value is -2.12. Turning to G50U A52C A107G, the “polymerase ribozyme fitness (log ratio)” value is ≤ -4.2.

Consider G50A G136U, for which the “polymerase ribozyme fitness (log ratio)” value was -2.96. Under G50C A52C U77C C79A U101G A115U stands ≤ -4.2; under C51A G94C, -1.47. The result for C51A C63A U82A reads -0.419; that for C51A C96U A97U, -2.73; that for G50A G133C, -3.28. Under G50A C85A stands -3.59; under G50U C54U C93A G136U, -4.07. For the variant G50U G84A U148G, the “polymerase ribozyme fitness (log ratio)” value was ≤ -4.2.

For the variant C51A A52C A64C C95U U101C A121C G133C U135G, the “polymerase ribozyme fitness (log ratio)” value was ≤ -4.2.

With A49U G141A, the “polymerase ribozyme fitness (log ratio)” value was -1.34. The result for G50C A120U A121C reads -2.61. For A49U G59A C85A, the “polymerase ribozyme fitness (log ratio)” value is -3.41. As for A52C C93G A122G, the “polymerase ribozyme fitness (log ratio)” value is -3.18.

For the variant A52C C85U A121C U134C A142C, the “polymerase ribozyme fitness (log ratio)” value was -2.29. The result for C51U G83U G86U G94A U135G U144G G152C reads ≤ -4.2; that for C51A C63A G88U G126A, ≤ -4.2; that for C51A A52G U56G C79A, ≤ -4.2. The result for G50C C123U reads -2.4; that for C51A C99G G141C, ≤ -4.2.

As for C51U G92A, the “polymerase ribozyme fitness (log ratio)” value is -3.5.

Consider A49U C93A, for which the “polymerase ribozyme fitness (log ratio)” value was -3.3. The result for C51G C85A G92U C95A reads ≤ -4.2; that for C51U U53C C63U G74C G86C A89U A113U, ≤ -4.2; that for C51U G86C A113G C114U A121G U151G, ≤ -4.2. The result for A49U C96A reads -3.45; that for A52C, -0.883; that for A52G, -0.491.

In the case of A52G A106C, the “polymerase ribozyme fitness (log ratio)” value is -0.69. Under C51U G143U stands -2.3.

Turning to G50U U61G C108U U135A, the “polymerase ribozyme fitness (log ratio)” value was ≤ -4.2. Under C51A A91G stands -3.53; under C51U C93G A120C G143C, -4.17; under G50A G88A C95U C123G U139G U151G, ≤ -4.2. The result for G50C A52G U77A G128U A142U reads ≤ -4.2. Under A52C C96A C118G C125A stands -2.23; under A49U C51U A147C, -0.373; under G50A C76A C96U, -3.13.

For A52C C85U, the “polymerase ribozyme fitness (log ratio)” value was -1.81. On to C51U U134C, for which the “polymerase ribozyme fitness (log ratio)” value was -0.745.

Turning to G50U A91U, the “polymerase ribozyme fitness (log ratio)” value is ≤ -4.2.

Regarding G50U A91G, the “polymerase ribozyme fitness (log ratio)” value was -2.52. The result for G50A A52G C76U A98G C123G reads -2.81. The result for C51A A60G A89U reads -1.65. Take A49U C87A: the “polymerase ribozyme fitness (log ratio)” value was ≤ -4.2.

In the case of C51G A115C A122U, the “polymerase ribozyme fitness (log ratio)” value was -3.82.

In the case of A52G A150C, the “polymerase ribozyme fitness (log ratio)” value is -3.43. Consider C51U C116G G140C, for which the “polymerase ribozyme fitness (log ratio)” value was -4.07.

On to G50U U55A G126U, for which the “polymerase ribozyme fitness (log ratio)” value was -0.316. The result for A52C A106G U139C reads ≤ -4.2; that for C51U G68U C87U U145C, ≤ -4.2. Under C51U G62C G70A A115U C116A stands ≤ -4.2. Under C51G C85G C125U A137C stands ≤ -4.2. As to C51G G58U C93G C123U, the “polymerase ribozyme fitness (log ratio)” value is ≤ -4.2.

Regarding G50A A120G A122U A150U, the “polymerase ribozyme fitness (log ratio)” value was -2.03.

Take G50C G94A U127C G133U A138C: the “polymerase ribozyme fitness (log ratio)” value was ≤ -4.2. Under G50C G86U U111G stands ≤ -4.2; under G50A A52C C72G A97C C99A U139C G143A, ≤ -4.2; under C51U U53G C93G U127C, ≤ -4.2. As for C51A C75U A98U, the “polymerase ribozyme fitness (log ratio)” value was -3.28. The result for C51G G62U G92A C96A reads ≤ -4.2; that for A49U G67A C95U C114G A142C, ≤ -4.2; that for A52G A106U U135A, -1.7. Under G50A G136U U144G U146C stands -2.38; under G50C G68U C85U G92U A106G, ≤ -4.2. Under G50A C108A G124U U148G stands ≤ -4.2; under G50C C87A C114G A150C, ≤ -4.2. Take A49U C57U C93G C103G U144C: the “polymerase ribozyme fitness (log ratio)” value is ≤ -4.2.

G50C G71U A97U: the “polymerase ribozyme fitness (log ratio)” value was ≤ -4.2.

Take G50C C85A C93A: the “polymerase ribozyme fitness (log ratio)” value was ≤ -4.2. The result for C51U G94U reads -1.45.

As for G50C C87A C93A C99U A137U A138C, the “polymerase ribozyme fitness (log ratio)” value is ≤ -4.2.

On to A52G A60U G71A A121U U135G U148A, for which the “polymerase ribozyme fitness (log ratio)” value was -4.18. The result for C51A C72A G80U U146C reads ≤ -4.2; that for G50U G58A, 0.88. The result for G50C U56A G59C reads -3.03; that for A52G A97U, -0.8. The result for A49U G58C G124U reads -1.3; that for A52C U55A A91G U111A U139G, ≤ -4.2.

As to A49U U55G G58A C123A G126U U148A, the “polymerase ribozyme fitness (log ratio)” value was ≤ -4.2.

Regarding G50U A60U C87U G94A U146A, the “polymerase ribozyme fitness (log ratio)” value is ≤ -4.2. Under A49U G58C C75G C118G G124A stands ≤ -4.2; under A52C C85G G92U, ≤ -4.2; under A52C G58C G88U, ≤ -4.2. For the variant G50U G81A C96G A142U, the “polymerase ribozyme fitness (log ratio)” value is -2.59. For G50A U53A C85A U109G A115G C116G G126C, the “polymerase ribozyme fitness (log ratio)” value is ≤ -4.2. For the variant G50C C54U U56A G59U, the “polymerase ribozyme fitness (log ratio)” value is -3.48. Under G50A C75U C96A A97U stands ≤ -4.2. Regarding A49U U55A U56G, the “polymerase ribozyme fitness (log ratio)” value was -1.76. The result for C51A C95U A97U reads -2.64; that for A49U C69U, -1.86.
